For experiment [1], the target named is C-terminal SH2 domain of PI3K regulatory subunit 1 (UniProt P27986 614-724). Kind of experiment: FP.
The target in experiment [2] is N-terminal SH2 domain of PI3K regulatory subunit 1 (UniProt P27986 321-433). As to the kind of experiment: FP.

Square brackets hold non-standard residues; d marks the D form. Ends that are not written are not given here. pY = N[C@@H](Cc1ccc(OP(=O)(O)O)cc1)C(=O)O

Sequence of C-terminal SH2 domain of PI3K regulatory subunit 1 (P27986 614-724): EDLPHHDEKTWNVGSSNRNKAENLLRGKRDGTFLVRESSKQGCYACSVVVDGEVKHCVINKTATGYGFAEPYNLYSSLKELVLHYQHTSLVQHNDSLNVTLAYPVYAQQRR
Sequence of N-terminal SH2 domain of PI3K regulatory subunit 1 (P27986 321-433): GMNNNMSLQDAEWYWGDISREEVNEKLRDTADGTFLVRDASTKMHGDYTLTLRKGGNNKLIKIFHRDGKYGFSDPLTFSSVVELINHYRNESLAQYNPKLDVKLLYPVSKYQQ

B1: fluorescently labelled phospho-para-tyrosine IRS-1 peptide GRKGSGD(pY)MPMSPKS(K-FITC) (peptide)
peptide: GRKGSGDYMPMSPKSK
modifications: not fully specified; phosphotyrosine at position 8 of the peptide (tyrosine residue 632 of human IRS1); lys-carboxyfluorescein (K-FITC) at the C-terminal end
The Kd is a measure of binding affinity in units of concentration. Read a high Kd as a looser complex. For B1, the figures for the Kd in experiment [1] and in experiment [2] were 18.6 nM and 408 nM, respectively.

B2: phospho-para-Tyr IRS-1 peptide GRKGSGD(pY)MPMSPKV (peptide)
peptide: GRKGSGD[pY]MPMSPKV-NH2
Consider B2, for which the results for the Kd in experiment [1] and in experiment [2] were 2.1 nM and 137 nM, respectively.

For the origin of these results see PMC9138545 (2022).
